Test results published in the RNAGym collection of RNA variant scans (doi:10.7554/elife.80360).

B1: Hairpin Ribozyme (parent)
chain: GUCCUCUUUCACGUGCGCGUGAAAGAGAGAAGUGAACCAGAGAAACACACGUUGUGGUAUAUUACCUGGUA

Variants of: B1
Test: self-cleavage, relative activity (ratio to wild type); higher = more cleavage; co-transcriptional

Variant | self-cleavage
GUCCUCUUUCACGUGCGCGUGAAAGAGAGAAGUGAACCAGAGAGACACACGUUGUGGUAUAUUACCUGGUA | 0.146
GUCCUCUUUCACGUGCGCGUGAAAGAGAGAAGUGAACCAGAGACACACACGUUGUGGUAUAUUACCUGGUA | 0.148
GUCCUCUUUCACGUGCGCGUGAAAGAGAGAAGUGAACCAGAGAUACACACGUUGUGGUAUAUUACCUGGUA | 0.141
GUCCUCUUUCACGUGCGCGUGAAAGAGAGAAGUGAACCAGAGAGACGCACGUUGUGGUAUAUUACCUGGUA | 0.17
GUCCUCUUUCACGUGCGCGUGAAAGAGAGAAGUGAACCAGAGACACACACGUUGUGGUAUAUUAGCUGGUA | 0.17
GUCCUCUUUCACGUGCGCGUGAAAGAGAGAAGUGAACCAGAGACACACACGUUGUGGUAUCUUACCUGGUA | 0.288
GUCCUCUUUCACGUGCGCGUGAAAGAGAGAAGUGAACCAGAGAGACACACGUUGUGGUAUAUUACCUCGUA | 0.244
GUCCUCUUUCACGUGCGCGUGAAAGAGAGAAGUGAACCAGAGAGACACACGUUGUGGUAUAUUACCUAGUA | 0.155
GUCCUCUUUCACGUGCGCGUGAAAGAGAGAAGUGAACCAGAGACACACACCUUGUGGUAUAUUACCUGGUA | 0.289
GUCCUCUUUCACGUGCGCGUGAAAGAGAGAAGUGAACCAGAGAGACACACGUUGUGGUAUAUUACUUGGUA | 0.0408
GUCCUCUUUCACGUGCGCGUGAAAGAGAGAAGUGAACCAGAGAUACACAGGUUGUGGUAUAUUACCUGGUA | 0.156
GUCCUCUUUCACGUGCGCGUGAAAGAGAGAAGUGAACCAGAGAUACACAAGUUGUGGUAUAUUACCUGGUA | 0.172
GUCCUCUUUCACGUGCGCGUGAAAGAGAGAAGUGAACCAGAGACACACACGUUGUGGUAUAUUACCUGGAA | 0.109
GUCCUCUUUCACGUGCGCGUGAAAGAGAGAAGUGAACCAGAGACACACACGUUGUGGUAUAUUACCUGGCA | 0.176
GUCCUCUUUCACGUGCGCGUGAAAGAGAGAAGUGAACCAGAGAUACUCACGUUGUGGUAUAUUACCUGGUA | 0.0528
GUCCUCUUUCACGUGCGCGUGAAAGAGAGAAGUGAACCAGAGUAACACACGUUGUGGUAUAUUACCGGGUA | 0.0666
GUCCUCUUUCACGUGCGCGUGAAAGAGAGAAGUGAACCAGAGUAACACACGUUGUGGUAUAUUACCAGGUA | 0.0806
GUCCUCUUUCACGUGCGCGUGAAAGAGAGAAGUGAACCAGAGAGACACACGUUGUGGUAUAUUACCUGGUU | 0.158
GUCCUCUUUCACGUGCGCGUGAAAGAGAGAAGUGAACCAGAGAUACACACGUUGUGCUAUAUUACCUGGUA | 0.0924
GUCCUCUUUCACGUGCGCGUGAAAGAGAGAAGUGAACCAGAGAUACACACGUUGUGUUAUAUUACCUGGUA | 0.206
GUCCUCUUUCACGUGCGCGUGAAAGAGAGAAGUGAACCAGAGAUAGACACGUUGUGGUAUAUUACCUGGUA | 0.0928
GUCCUCUUUCACGUGCGCGUGAAAGAGAGAAGUGAACCAGAGAUACACACGUUGUGGUAUAUUAUCUGGUA | 0.14
GUCCUCUUUCACGUGCGCGUGAAAGAGAGAAGUGAACCAGAGAGACACACGUUUUGGUAUAUUACCUGGUA | 0.16
GUCCUCUUUCACGUGCGCGUGAAAGAGAGAAGUGAACCAGAGACACACACGUUGUGGGAUAUUACCUGGUA | 0.128
GUCCUCUUUCACGUGCGCGUGAAAGAGAGAAGUGAACCAGAGACACACACGUUGUGGCAUAUUACCUGGUA | 0.141
GUCCUCUUUCACGUGCGCGUGAAAGAGAGAAGUGAACCAGAGAGACACACGUUGUGGGAUAUUACCUGGUA | 0.198

Variant | self-cleavage
GUCCUCUUUCACGUGCGCGUGAAAGAGAGAAGUGAACCAGAGACACACACGUUGUUGUAUAUUACCUGGUA | 0.241
GUCCUCUUUCACGUGCGCGUGAAAGAGAGAAGUGAACCAGAGACACACACGAUGUGGUAUAUUACCUGGUA | 0.0299
GUCCUCUUUCACGUGCGCGUGAAAGAGAGAAGUGAACCAGAGACACACACGCUGUGGUAUAUUACCUGGUA | 0.213
GUCCUCUUUCACGUGCGCGUGAAAGAGAGAAGUGAACCAGAGUAACACACGUUGUGGUAUAUUACCUGGAA | 0.145
GUCCUCUUUCACGUGCGCGUGAAAGAGAGAAGUGAACCAGAGAGACACACGUUGUUGUAUAUUACCUGGUA | 0.226
GUCCUCUUUCACGUGCGCGUGAAAGAGAGAAGUGAACCAGAGAGACACACGUUGUGGUAUAUUACCUGGAA | 0
GUCCUCUUUCACGUGCGCGUGAAAGAGAGAAGUGAACCAGAGACACCCACGUUGUGGUAUAUUACCUGGUA | 0.121
GUCCUCUUUCACGUGCGCGUGAAAGAGAGAAGUGAACCAGAGAGACACACGUUGUGGUUUAUUACCUGGUA | 0.155
GUCCUCUUUCACGUGCGCGUGAAAGAGAGAAGUGAACCAGAGAGACACACGUUGUGGUCUAUUACCUGGUA | 0.179
GUCCUCUUUCACGUGCGCGUGAAAGAGAGAAGUGAACCAGAGAGACACACGUUGUGGUAUAUUGCCUGGUA | 0.0828
GUCCUCUUUCACGUGCGCGUGAAAGAGAGAAGUGAACCAGAGACACACACGUUGUGGUAUAUUACCUUGUA | 0.126
GUCCUCUUUCACGUGCGCGUGAAAGAGAGAAGUGAACCAGAGACCCACACGUUGUGGUAUAUUACCUGGUA | 0
GUCCUCUUUCACGUGCGCGUGAAAGAGAGAAGUGAACCAGAGUAACACACGUUGUGGUAUAUGACCUGGUA | 0.307
GUCCUCUUUCACGUGCGCGUGAAAGAGAGAAGUGAACCAGAGAGACACACGUUGUGGUAUAUUACCUGUUA | 0.0884
GUCCUCUUUCACGUGCGCGUGAAAGAGAGAAGUGAACCAGAGAGACACACGUUGUGGUAUAUUACCUGCUA | 0.196
GUCCUCUUUCACGUGCGCGUGAAAGAGAGAAGUGAACCAGAGACACACGCGUUGUGGUAUAUUACCUGGUA | 0.22
GUCCUCUUUCACGUGCGCGUGAAAGAGAGAAGUGAACCAGAGACACACACGUGGUGGUAUAUUACCUGGUA | 0.0885
GUCCUCUUUCACGUGCGCGUGAAAGAGAGAAGUGAACCAGAGAUACACACGUUGUGGUAUAUUACCUCGUA | 0.148
GUCCUCUUUCACGUGCGCGUGAAAGAGAGAAGUGAACCAGAGAUACACACGUUGUGGUAUAUUACCUAGUA | 0.116
GUCCUCUUUCACGUGCGCGUGAAAGAGAGAAGUGAACCAGAGAUACACACGUUGUCGUAUAUUACCUGGUA | 0.239
GUCCUCUUUCACGUGCGCGUGAAAGAGAGAAGUGAACCAGAGACACACAUGUUGUGGUAUAUUACCUGGUA | 0.15
GUCCUCUUUCACGUGCGCGUGAAAGAGAGAAGUGAACCAGAGACACACACGUUGUGGUAUAUUACCUGGUG | 0.211
GUCCUCUUUCACGUGCGCGUGAAAGAGAGAAGUGAACCAGAGACACACACGUUGUGGUUUAUUACCUGGUA | 0.103
GUCCUCUUUCACGUGCGCGUGAAAGAGAGAAGUGAACCAGAGAGACACACGUUGUGGUAAAUUACCUGGUA | 0.171
GUCCUCUUUCACGUGCGCGUGAAAGAGAGAAGUGAACCAGAGACACACACGUUCUGGUAUAUUACCUGGUA | 0.0581
GUCCUCUUUCACGUGCGCGUGAAAGAGAGAAGUGAACCAGAGACACACACGUUUUGGUAUAUUACCUGGUA | 0.194

Variant | self-cleavage
GUCCUCUUUCACGUGCGCGUGAAAGAGAGAAGUGAACCAGAGACACACACGUUAUGGUAUAUUACCUGGUA | 0.184
GUCCUCUUUCACGUGCGCGUGAAAGAGAGAAGUGAACCAGAGAGACACACGAUGUGGUAUAUUACCUGGUA | 0.246
GUCCUCUUUCACGUGCGCGUGAAAGAGAGAAGUGAACCAGAGAGACACACGUUGUGGUAUAUUACCAGGUA | 0.161
GUCCUCUUUCACGUGCGCGUGAAAGAGAGAAGUGAACCAGAGAGACACACGUUGUGGUAUAUUACCGGGUA | 0.149
GUCCUCUUUCACGUGCGCGUGAAAGAGAGAAGUGAACCAGAGACACACACGUUGUGGUAUAUUACCCGGUA | 0.099
GUCCUCUUUCACGUGCGCGUGAAAGAGAGAAGUGAACCAGAGACACACACGUUGUGGUAUAUUACCGGGUA | 0.094
GUCCUCUUUCACGUGCGCGUGAAAGAGAGAAGUGAACCAGAGACACACACGUUGUGGUAAAUUACCUGGUA | 0.172
GUCCUCUUUCACGUGCGCGUGAAAGAGAGAAGUGAACCAGAGAUACACACGUUGUGGUAUAUUACGUGGUA | 0.183
GUCCUCUUUCACGUGCGCGUGAAAGAGAGAAGUGAACCAGAGACACACACGUUGUGGUAUACUACCUGGUA | 0.279
GUCCUCUUUCACGUGCGCGUGAAAGAGAGAAGUGAACCAGAGAUCCACACGUUGUGGUAUAUUACCUGGUA | 0.321
GUCCUCUUUCACGUGCGCGUGAAAGAGAGAAGUGAACCAGAGACACACACGUUGUGAUAUAUUACCUGGUA | 0.135
GUCCUCUUUCACGUGCGCGUGAAAGAGAGAAGUGAACCAGAGACACACACGUUGUGCUAUAUUACCUGGUA | 0.215
GUCCUCUUUCACGUGCGCGUGAAAGAGAGAAGUGAACCAGAGAGACACACGUUGUGGUAUAUUAACUGGUA | 0.0664
GUCCUCUUUCACGUGCGCGUGAAAGAGAGAAGUGAACCAGAGAGACACACGUUGUGGUAUAUUAUCUGGUA | 0.0694
GUCCUCUUUCACGUGCGCGUGAAAGAGAGAAGUGAACCAGAGAGACACACGUUGUGUUAUAUUACCUGGUA | 0.022
GUCCUCUUUCACGUGCGCGUGAAAGAGAGAAGUGAACCAGAGAGACACACGUUGUGCUAUAUUACCUGGUA | 0.148
GUCCUCUUUCACGUGCGCGUGAAAGAGAGAAGUGAACCAGAGAGACAGACGUUGUGGUAUAUUACCUGGUA | 0.115
GUCCUCUUUCACGUGCGCGUGAAAGAGAGAAGUGAACCAGAGAGACAUACGUUGUGGUAUAUUACCUGGUA | 0.0899
GUCCUCUUUCACGUGCGCGUGAAAGAGAGAAGUGAACCAGAGAUACACACUUUGUGGUAUAUUACCUGGUA | 0.096
GUCCUCUUUCACGUGCGCGUGAAAGAGAGAAGUGAACCAGAGAUACACACCUUGUGGUAUAUUACCUGGUA | 0.246
GUCCUCUUUCACGUGCGCGUGAAAGAGAGAAGUGAACCAGAGAUACACACAUUGUGGUAUAUUACCUGGUA | 0.157
GUCCUCUUUCACGUGCGCGUGAAAGAGAGAAGUGAACCAGAGAGACACACGUUGAGGUAUAUUACCUGGUA | 0.0483
GUCCUCUUUCACGUGCGCGUGAAAGAGAGAAGUGAACCAGAGAGACACACGUUGCGGUAUAUUACCUGGUA | 0.0374
GUCCUCUUUCACGUGCGCGUGAAAGAGAGAAGUGAACCAGAGAUACAGACGUUGUGGUAUAUUACCUGGUA | 0.12
